Results reported in patent US20060233788A1 (published 2006).
No end group written: not given here. *: point of attachment. Octanoyl = CCCCCCCC(=O)*

T1: human ghrelin peptide 4-28 (human)
T1 peptide: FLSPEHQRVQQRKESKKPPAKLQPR

T2: human ghrelin peptide spanning amino acids 4-20 (human)
T2 peptide: FLSPEHQRVQQRKESKK

T3: human ghrelin peptide 4-16 (human)
T3 peptide: FLSPEHQRVQQRK

T4: human ghrelin peptide 13-19 (human)
T4 peptide: QQRKESK

T5: human ghrelin peptide 18-28 (human)
T5 peptide: SKKPPAKLQPR

T6: human ghrelin peptide 7-16 (human)
T6 peptide: PEHQRVQQRK

T7: peptide spanning amino acids 14-28 of human ghrelin (human)
T7 peptide: QRKESKKPPAKLQPR

B1: full-length, acylated rat ghrelin (peptide, UniProt Q9QYH7 24-51, looked up)
peptide: GSSFLSPEHQKAQQRKESKKPPAKLQPR
modifications: also: acylated (position and acyl group not given here)
notes: mature; The UniProt entry is the precursor; the assay used the ghrelin peptide; also called rGhrelin
B2: Ghrelin (1-8 acyl) (peptide)
peptide: GSS(Octanoyl)FLSPE
notes: also called hGhrelin (1-8 acyl); Human 1-8 acyl
B3: Ghrelin (9-28) (peptide)
peptide: HQRVQQRKESKKPPAKLQPR
notes: also called hGhrelin (9-28)
B4: Ghrelin (1-8, desacyl) (peptide)
peptide: GSSFLSPE
notes: also called hGhrelin (1-8 desacyl)
B5: full-length human ghrelin (1-28) acylated with an octanoyl group on the serine at position 3 (peptide)
peptide: GSSFLSPEHQRVQQRKESKKPPAKLQPX
modifications: octanoyl group on the serine at position 3
notes: the 1-28 form has Arg at 28; also called hGhrelin; acylated hGhrelin
B6: Fab 1181 (Fab, V domains shown)
VH: QVQLQQSGAELVRSGASVKLSCTASGFNIKDYFMQWVKQRPEQGLEWIGWIDPENGETGYAPKFQGKATMTADTASNTAYLQLSSLTSEDTALYYCNAPSVVAKYFDVWGAGTTVTVSS
VL: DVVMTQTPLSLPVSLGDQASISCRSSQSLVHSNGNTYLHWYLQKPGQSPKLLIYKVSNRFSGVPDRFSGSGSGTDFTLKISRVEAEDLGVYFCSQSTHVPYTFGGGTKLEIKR
notes: Mouse Fab from an Omniclonal library (Biosite); kappa light chain (detected and captured with goat anti-mouse kappa); the HCVR amino acid entry is 12
B7: Fab 1621 (Fab, V domains shown)
VH: QVQLQQSGAELVRSGASVKLSCTASGFNIKDYFVQWVKQRPEQGLEWIGWIDPENGETGYAPKFQGKATMTADTASNTAYLQLSSLTSEDTALYFCNAPSVVAKYFDVWGAGTTVTVSS
VL: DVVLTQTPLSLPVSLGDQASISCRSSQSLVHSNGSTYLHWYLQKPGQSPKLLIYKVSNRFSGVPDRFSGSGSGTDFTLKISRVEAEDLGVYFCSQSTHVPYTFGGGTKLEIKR
notes: Mouse Fab, kappa light chain

Experiments:
[1] = target: T8, GHS-R1a human ghrelin receptor (human, UniProt Q92847 1-366); test: FLIPR calcium assay, AV12 cells expressing human GHS-R1a
T8 construct: whole, on cells; also called GHS-1a receptor; growth hormone secretagogue receptor
T8 sequence (Q92847 whole entry): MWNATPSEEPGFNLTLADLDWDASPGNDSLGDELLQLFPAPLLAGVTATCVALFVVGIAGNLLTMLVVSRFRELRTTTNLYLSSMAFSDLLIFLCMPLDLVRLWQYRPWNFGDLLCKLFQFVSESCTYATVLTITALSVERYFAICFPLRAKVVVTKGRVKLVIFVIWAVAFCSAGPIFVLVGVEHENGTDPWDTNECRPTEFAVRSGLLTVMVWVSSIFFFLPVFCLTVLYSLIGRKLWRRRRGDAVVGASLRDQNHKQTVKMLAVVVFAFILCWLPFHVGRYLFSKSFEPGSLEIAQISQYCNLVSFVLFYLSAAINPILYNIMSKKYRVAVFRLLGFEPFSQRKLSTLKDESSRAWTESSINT

Fab 1181 [2] = target: B6; test: competitive ELISA, Fab 1181 on coated BSA-hGhrelin; compound 1 ug/ml
Description: (§1) The plate was incubated at 4° C. overnight. The wells are aspirated and washed twice with washing buffer (20 mM Tris-Cl, pH 7.4, 0.15 M NaCl, 0.1% Tween 20). Compounds (i.e., human ghrelin or ghrelin analogs) are diluted into antibody solution. […] The compound concentration is varied as listed in Tables 2-5 below, but the Fab concentration is kept constant at 0.1 μg/ml in blocking solution (10 mg/ml BSA in wash buffer). […] The plates are incubated for 1 hour at room temperature. The wells are then washed three times with washing buffer.
(§2) Peroxidase-conjugated secondary antibody (50 μl goat anti-mouse kappa HRP (Southern Biotech), diluted 1:2000 in blocking buffer) is added to each well and incubated for 1 hour at room temperature. The wells are then washed 4 times with washing buffer. Fifty microliters of chromogenic substrate (i.e., OPD substrate) is added to each well and allowed to develop at room temperature for 10 minutes. The reaction is stopped by adding 100 μl 1N HCl to each well. The absorbance of the wells is read at 490 nm.
(§3) The average absorbance from triplicate wells is determined.
Target sequence in this assay (VL, as listed by the source, chain 2 of 2, one chain of several): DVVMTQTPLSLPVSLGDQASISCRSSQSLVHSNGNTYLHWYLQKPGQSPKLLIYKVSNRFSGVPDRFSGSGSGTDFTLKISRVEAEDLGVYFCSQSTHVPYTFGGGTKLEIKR

Fab 1181 [3] = target: B6; test: competitive ELISA, Fab 1181 on coated BSA-hGhrelin; compound 5 ug/ml
Description: as §1, §2, §3
Target sequence in this assay (VL, as listed by the source, chain 2 of 2, one chain of several): as above

Fab 1621 [4] = target: B7; test: competitive ELISA, Fab 1621 on coated BSA-hGhrelin; compound 1 ug/ml
Description: as §1, §2, §3
Target sequence in this assay (VL, as listed by the source limits assumed, chain 2 of 2, one chain of several): as the sequence (VL, as listed by the source, chain 2 of 2, one chain of several) above, with M4L, N35S counted along it

Fab 1621 [5] = target: B7; test: competitive ELISA, Fab 1621 on coated BSA-hGhrelin; compound 5 ug/ml
Description: as §1, §2, §3
Target sequence in this assay (VL, as listed by the source limits assumed, chain 2 of 2, one chain of several): as the sequence (VL, as listed by the source, chain 2 of 2, one chain of several) above, with M4L, N35S counted along it

Fab 1181 [6] = target: B6; test: competitive ELISA, Fab 1181 on coated BSA-hGhrelin; compound 0.2 ug/ml
Description: as §1, §2, §3
Target sequence in this assay (VL, as listed by the source, chain 2 of 2, one chain of several): as the sequence (VL, as listed by the source, chain 2 of 2, one chain of several) above

Fab 1621 [7] = target: B7; test: competitive ELISA, Fab 1621 on coated BSA-hGhrelin; compound 0.2 ug/ml
Description: as §1, §2, §3
Target sequence in this assay (VL, as listed by the source limits assumed, chain 2 of 2, one chain of several): as the sequence (VL, as listed by the source, chain 2 of 2, one chain of several) above, with M4L, N35S counted along it

Fab 1181 [8] = target: B6; test: competitive ELISA, Fab 1181 on coated BSA-hGhrelin; compound 0 (baseline, no compound)
Description: as §1, §2, §3

Fab 1621 [9] = target: B7; test: competitive ELISA, Fab 1621 on coated BSA-hGhrelin; compound 0 (baseline, no compound)
Description: as §1, §2, §3
Target sequence in this assay (VL, as listed by the source limits assumed): as the sequence (VL, as listed by the source, chain 2 of 2, one chain of several) above, with M4L, N35S counted along it

[10] = target: T1, human ghrelin peptide 4-28; test: cell-based or functional assay
[11] = target: T2, human ghrelin peptide spanning amino …; test: cell-based or functional assay
[12] = target: T3, human ghrelin peptide 4-16; test: cell-based or functional assay
[13] = target: B5; test: cell-based or functional assay
Ghrelin (1-8 acyl) = target: B2; test: competitive ELISA on coated BSA-hGhrelin
Description: as §1, §2

[14] = target: T4, human ghrelin peptide 13-19; test: FLIPR assay, peptide competes with hGhrelin for the Fab
[15] = target: T5, human ghrelin peptide 18-28; test: as above
[16] = target: T6, human ghrelin peptide 7-16; test: as above
Ghrelin (9-28) = target: B3; test: as above
[17] = target: B1; test: SPR (BIAcore 2000), Fab captured on goat anti-mouse kappa, ghrelin in solution, 25 C
Description: (§4) The BIAcore® utilizes the optical properties of surface plasmon resonance to detect alterations in protein concentration of interacting molecules within a dextran biosensor matrix. Except where noted, all reagents and materials are purchased from BIAcore® AB (Upsala, Sweden). All measurements are performed at 25° C. Samples containing rat or human ghrelin (full length, acylated) are dissolved in HBS-EP buffer (150 mM sodium chloride, 3 mM EDTA, 0.005% (w/v) surfactant P-20, and 10 mM HEPES, pH 7.4). A capture antibody, goat anti-mouse Kappa (Southern Biotechnology, Inc), is immobilized onto flow cells using amine-coupling chemistry. Flow cells (1-4) are activated for 7 minutes with a 1:1 mixture of 0.1 M N-hydroxysuccinimide and 0.1 M 3-(N,N-dimethylamino)propyl-N-ethylcarbodiimide at a flow rate of 10 μl/min. Goat anti-mouse Kappa (30 μg/mL in 10 mM sodium acetate, pH 4.5) is manually injected over all 4 flow cells at a flow rate of 10 μL/min. The surface density is monitored and additional goat anti-mouse Kappa is injected if needed to individual cell until all flow cells reach a surface density of 4500-5000 response units (RU). Surfaces are blocked with a 7 minute injection of 1 M ethanolamine-HCl, pH 8.5(10 μl/min). To ensure complete removal of any noncovalently bound goat anti-mouse Kappa, 15 μL of 10 mM glycine, pH 1.5 is injected twice. Running buffer used for kinetic experiments contained 10 mM HEPES, pH 7.4, 150 mM NaCl, 0.005% P20.
(§5) Collection of kinetic binding data is performed at maximum flow rate (100 μL/min) and a low surface density to minimize mass transport effects.

[18] = target: B5; test: as above
Description: as §4, §5

[19] = target: T9, full-length human ghrelin not acylated (human); test: as above
T9 construct: also called hGhrelin (desacyl); des-acyl hGhrelin
Description: as §4, §5

Ghrelin (1-8, desacyl) = target: B4; test: FLIPR assay, peptide competes with hGhrelin for the Fab (no reduction means the Fab does not bind the peptide)
[20] = target: T7, peptide spanning amino acids 14-28 of …; test: FLIPR assay, peptide competes with hGhrelin for the Fab (Fab 5 nM)
Description: (§6) The final concentration of the sample solution is 0.75% BSA, and calcium at approximately the same concentration as in the FLIPR buffer. Fifty microliters of the sample solution is added to the 50 μl FLIPR buffer in the well with the AV12 cells. […] The cell plate is shaken for 15 seconds prior to loading it into the FLIPR instrument. Test samples or control samples are added to each well, and read by a Fluorometric Imaging Plate Reader (Molecular Devices).

[21] = target: T7, peptide spanning amino acids 14-28 of …; test: FLIPR assay, peptide competes with hGhrelin for the Fab (Fab 20 nM)
Description: as §6

Binder	Ave. OD (Fab 1181 [2]) [OD]	Ave. OD (Fab 1181 [3]) [OD]	Ave. OD (Fab 1621 [4]) [OD]	Ave. OD (Fab 1621 [5]) [OD]	Ave. OD (Fab 1181 [6]) [OD]	Ave. OD (Fab 1621 [7]) [OD]	Ave. OD (Fab 1181 [8]) [OD]	Ave. OD (Fab 1621 [9]) [OD]	further results
B1	0.883	0.178	0.932	0.429	1.12	0.999	1.23	1.17	binding result [1]: binds
B2	1.22	1.21	1.32	1.22	1.26	1.36	1.23	1.17	–
GSSFLSPEHQRVQ (also: acyl (position and group not restated), also called human ghrelin 1-13 acyl; active human ghrelin analog) [Human 1-13 acyl]	–	–	–	–	–	–	–	–	binding result [1]: binds
B3	1.17	1.11	1.05	1.02	1.13	1.04	1.23	1.17	–
B4	1.19	1.18	1.33	1.26	1.22	1.38	1.23	1.17	–
B5	0.0497	0.0445	0.0495	0.043	0.0784	0.131	1.23	1.17	–
B6	–	–	–	–	–	–	–	–	reduction of Fab inhibition of hGhrelin (0.83 nM), FLIPR calcium assay; peptide 100 nM, Fab 0.95 nM [10]: 80%; reduction of Fab inhibition of hGhrelin (0.83 nM), FLIPR calcium assay; peptide 100 nM, Fab 0.95 nM [11]: 74%; reduction of Fab inhibition of hGhrelin (0.83 nM), FLIPR calcium assay; peptide 100 nM, Fab 0.95 nM [12]: 30%; IC50 (nM), Inhibition of hGhrelin at 0.8 nM, FLIPR calcium assay [13]: 0.8 nM; binding result (Ghrelin (1-8 acyl)): no binding (tested: 5 µg/ml); binding result [14]: no binding (tested: 100 nM peptide); binding result [15]: no binding (tested: 100 nM peptide); binding result [16]: no binding (tested: 100 nM peptide); binding result (Ghrelin (9-28)): no binding (tested: 100 nM peptide); Kd [17]: 10.4 nM; Kd [18]: 0.202 nM; kon [18]: 3.39e+06 M⁻¹ s⁻¹; Kd [19]: 0.434 nM; binding result (Ghrelin (1-8, desacyl)): no binding (tested: 100 nM peptide)
B7	–	–	–	–	–	–	–	–	IC50 (nM), Inhibition of hGhrelin at 0.8 nM, FLIPR calcium assay [13]: 1.64 nM; binding result (Ghrelin (1-8 acyl)): no binding (tested: 5 µg/ml); binding result [14]: no binding (tested: 100 nM peptide); binding result [15]: no binding (tested: 100 nM peptide); binding result [16]: no binding (tested: 100 nM peptide); binding result (Ghrelin (9-28)): no binding (tested: 100 nM peptide); Kd [17]: 5.7 nM; Kd [18]: 0.68 nM; Kd [19]: 1.74 nM; binding result (Ghrelin (1-8, desacyl)): no binding (tested: 100 nM peptide)
Fab 4641 (Fab, V domains shown, Mouse Fab) VH: QVQLQQSRPELVRPGASVKMSCRASAYTFTTYWMHWVRQRPGQGLEWIGMIDPSNSDTWLNQKFKDKATLNVDRSSNTAYMQLTSLTSEDSAVYYCARTGFDYWGQGTTLTVSS VL: DVVMTQTPLSLPVSLGDQASISCRSSQSLVHSDGNTYLHWYLQKPGQSPKLLIYKVSNRFSGVPDRFSGSGSGTDFTLKISRVEAEDLGVYFCSQSTYVSYTFGGGTKLEIKR	–	–	–	–	–	–	–	–	binding result [20]: no binding (tested: 100 nM peptide)
Fab 1451 (Fab, V domains shown, Mouse Fab) VH: QVHVKQSGPELVRPGASVKMSCKASAYTFTTYWMHWVKQRPGQGLEWIGMIDPYNSETWLNQKFKDKATLNVDRSSNTAYMKLSSLTSEDSAVYYCARTGFDYWGQGTTLTVSS VL: DVVLTQTPLSLPVSLGDQASISCRSSQSLVHSNGNTYLHWYLQKPGQSPKLLIYKVSNRFSGVPDRFSGSGSGTDFTLKISRVEAEDLGVYFCSQSTHVPYTFGGGTKLEIKR	–	–	–	–	–	–	–	–	binding result [21]: no binding (tested: 100 nM peptide)
